From patent US10370653B2, “Micro-screening apparatus, process, and products” (priority 2015, dated 2019)

Columns and labels:
[1] = test system: CC1(C)C2=C(Cl)C(=O)C(Cl)=CC2=Nc2ccc(OP(=O)(O)O)cc21; assay: Michaelis-Menten kinetics of yeast-displayed AP with DDAOP; type: biochemical, E. coli; details: other: substrate DDAOP, yeast display, pH 8.0
Description: (§1) Preparation of alkaline phosphatase protein constructs.
(§2) Analysis of alkaline phosphate activity.
For kinetic measurements on the μSCALE platform, a series of images were acquired at set intervals with 600/60 nm excitation/655 nm long pass emission filters to generate single-cell reaction time courses for each cavity in the array. […] Error bars reflect the standard deviation across all cavities in each spot and were used to fit a calibration line using weighted least squares. In both cases, the linear regime of each kinetic time series was used to estimate reaction rates.
(§3) Alkaline phosphatase was used as a model system.

[2] = target: fluorescently labeled phosphate-binding protein (PBP) from E. coli (Life Technologies, PV4406) (Escherichia coli, UniProt P0AG82, A222C); details: inorganic phosphate ([Pi]); two-state binding isotherm; TrisHCl pH 7.6
Chain of fluorescently labeled phosphate-binding protein (PBP) from E. coli (Life Technologies, PV4406) (P0AG82 26-346 A222C): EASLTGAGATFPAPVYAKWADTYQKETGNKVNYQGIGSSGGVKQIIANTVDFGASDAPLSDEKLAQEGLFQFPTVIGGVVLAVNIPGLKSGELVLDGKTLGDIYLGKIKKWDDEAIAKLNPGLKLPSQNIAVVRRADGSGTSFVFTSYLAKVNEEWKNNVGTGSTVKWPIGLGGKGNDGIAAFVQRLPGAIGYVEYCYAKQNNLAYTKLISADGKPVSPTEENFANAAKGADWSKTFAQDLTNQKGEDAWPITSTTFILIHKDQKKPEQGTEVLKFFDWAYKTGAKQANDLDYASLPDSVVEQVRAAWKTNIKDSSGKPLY
Description: Briefly, 100 μL of each sample was mixed with 100 μL of 1 μM PBP in Phosphate Sensor Detection Buffer (20 mM TrisHCl pH 7.6, 0.05% Triton X-100), and fluorescence of the mixture was immediately read out at an excitation/emission of 430/450 nm on a Biotek SYNERGY™ H4 plate reader spectrophotometer. When measuring phosphate content in the AP Reaction Buffer, the buffer was diluted 1:20 in water prior to incubation with the sensor in order to minimize interference from the concentrated MOPS and salt solutions on the PBP binding thermodynamics. PBP stocks were stored as 10 μM aliquots in Phosphate Sensor Storage Buffer (10 mM TrisHCl pH 7.6, 50 mM NaCl) at −80° C. and individually thawed prior to use. […] Error bars reflect the standard deviation over three measurements.

[3] = test system: CC1(C)C2=C(Cl)C(=O)C(Cl)=CC2=Nc2ccc(OP(=O)(O)O)cc21; assay: Michaelis-Menten kinetics of purified AP with DDAOP; type: biochemical, E. coli; details: other: substrate DDAOP, purified protein, pH 8.0
Description: as §1, §2, §3

Molecule: E. coli alkaline phosphatase (AP), wild type (WT), GENBANK Accession Number M13345, yeast-displayed (Escherichia coli K-12)
- Km [1]: 4.3 ± 0.4 µM

Molecule: O=P(O)(O)O [inorganic phosphate]
- Kd [2]: 940 nM

Molecule: E. coli alkaline phosphatase (AP) variant R166S, purified protein (Escherichia coli K-12; R188S)
- Km [3]: 51 ± 4 µM
- kcat [3]: 0.7 ± 0.2 s⁻¹
- kcat/Km [3]: (1.4 +/− 0.4) × 10^4 M^-1 s^-1

Molecule: E. coli alkaline phosphatase (AP), wild type (WT), GENBANK Accession Number M13345, purified protein (Escherichia coli K-12)
- Km ([3]; 50 pM): 4.1 ± 0.1 µM
- kcat ([3]; 50 pM): 15.7 ± 0.2 s⁻¹
- kcat/Km ([3]; 50 pM): (3.8 +/− 0.1) × 10^6 M^-1 s^-1

Molecule: E. coli alkaline phosphatase (AP) variant R166S, yeast-displayed (Escherichia coli K-12; R188S)
- Km [1]: 55 ± 7 µM
